The values that follow come from patent US20180264108A1 (ENCARE BIOTECH B V, published 2018).

Holding throughout (assay): PEPSCAN ELISA, peptide on card, alanine scan
In one test the target is T1, peptide TYSSPEDGIHELAP
T1 construct: Alanine-scan peptide on a PEPSCAN card; also called replaced amino acid F
T1 peptide: TYSSPEDGIHELAP

In another test the target is T2, peptide TYSSPEDAIHELFP
T2 construct: Alanine-scan peptide on a PEPSCAN card; also called replaced amino acid G
T2 peptide: TYSSPEDAIHELFP

The target of another test is T3, peptide TYSSPEDGAHELFP
T3 construct: Alanine-scan peptide on a PEPSCAN card; also called replaced amino acid I
T3 peptide: TYSSPEDGAHELFP

The next test concerns the target T4, peptide TYSSPEDGIHEAFP
T4 construct: Alanine-scan peptide on a PEPSCAN card; also called replaced amino acid L
T4 peptide: TYSSPEDGIHEAFP

B1: antibody 17G8.72 (antibody, V domains shown)
VH: DVQLQESGPDLVKPSQSLSLTCTVTGYSIASGYSWHWIRQFPGNKLEWMGYIHFSGSANYNPSLKSRISITRDTSKNQFFLQLNSVTTEDTATYYCASEARGYFDYWGQGTTLTVSS
VL: DVLMTQTPLSLPVSLGDQASISCRSSQSIVRSNGNTYLTWYLQKPGQSPKLLIYKVSNRFSGVPDRFSGSGSGTDFTLKISRVEAEDLGVYFCFQGSHVPPTFGSGTKLEIKR
On to B1, for which the entries for the “Antibody binding (arbitrary optical density units)” value (shortened to “Antibody binding”) in the test with peptide TYSSPEDGIHELAP, with peptide TYSSPEDAIHELFP and with peptide TYSSPEDGAHELFP were 106 arbitrary optical density units, 89 arbitrary optical density units and 66 arbitrary optical density units, respectively.

B2: antibody 29E7.35 (antibody, V domains shown)
VH: AVQLQESGPDLVKPSHSLSLTCTVTGYSITSGYSWHWIRQFPGNKLEWMGYIHYSGSANYNPSLKSRFSITRDTSKNQFFLQLNSVTTEDTATYYCATEKTGFFDYWGQGTTLTVSS
VL: DVVMTQTPLSLPVSLGDQASISCRSSQSLVHSNGNTYLHWYLQKPGQSPKLLIYKVSNRFSGVPDRFSGSGSGTDFTLKISRVEAEDLGVYFCSQSAHVPPTFGGGTKLEIKR
With B2, the “Antibody binding” value was 124 arbitrary optical density units with peptide TYSSPEDGIHELAP, 194 arbitrary optical density units with peptide TYSSPEDGIHEAFP, 81 arbitrary optical density units with peptide TYSSPEDAIHELFP and 74 arbitrary optical density units with peptide TYSSPEDGAHELFP.

B3: antibody 27A12.70 (antibody, V domains shown)
VH: DVQLQESGPDLVKPSQSLSLTCTVTGYSITSGYSWHWIRQFPGNKLEWMGYIHYSGIANYNPSLKSRISITRDTSKNHFFLQLNSVTTEDTATYYCATEKTGFFDYWGQGTTLTVSS
VL: DVVMTQTPLSLPVSLGDQASISCRSSQSLVHSNGNTYLHWYLQKPGQSPKLLIYKVSNRFSGVPDRFSGSGSGTDFTLKISRVEAEDLGVYFCSQSAHVPPTFGGGTKLEIKR
B3: the “Antibody binding” value in the test with peptide TYSSPEDGIHELAP is 249 arbitrary optical density units; with peptide TYSSPEDAIHELFP, 122 arbitrary optical density units; in the test with peptide TYSSPEDGAHELFP, 91 arbitrary optical density units.
